Assay results from US20220048967A1 (published 2022).
Numbered stars: 1 amine (or outer) side, 2 acyl side, 3 side chain; on linkers, the order of the positions; unused ones are H or OH. Square brackets hold non-standard residues; d marks the D form. Side chains are listed from the residue outwards. Ends that are not written are not given here. * marks the point of attachment. C20 diacid = O=C(O)CCCCCCCCCCCCCCCCCCC(=O)*; γGlu = O=C(O)[C@H](CCC(=O)[*:2])N[*:1]; AEEA = NCCOCCOCC(=O)O; Aib = CC(C)(N)C(=O)O

What was measured:
[1] = target: T1, human GIP receptor (human, UniProt P48546 22-466); test: cell-based or functional assay
T1 sequence (looked up): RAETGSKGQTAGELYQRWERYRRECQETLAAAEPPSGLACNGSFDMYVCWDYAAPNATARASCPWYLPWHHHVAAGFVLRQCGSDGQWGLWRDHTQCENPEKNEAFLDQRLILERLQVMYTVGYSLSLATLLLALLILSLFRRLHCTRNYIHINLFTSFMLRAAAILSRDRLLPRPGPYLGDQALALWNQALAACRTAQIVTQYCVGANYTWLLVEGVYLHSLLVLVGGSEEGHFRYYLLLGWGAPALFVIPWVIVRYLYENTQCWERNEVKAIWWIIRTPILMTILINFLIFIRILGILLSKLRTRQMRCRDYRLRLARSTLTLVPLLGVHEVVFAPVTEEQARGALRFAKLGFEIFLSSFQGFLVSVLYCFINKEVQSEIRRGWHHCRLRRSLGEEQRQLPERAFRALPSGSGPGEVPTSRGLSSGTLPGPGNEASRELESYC

[2] = target: human GLP-1 receptor (human, UniProt P43220 24-463); test: cell-based or functional assay

B1: Example 48 (peptide)
peptide: Y[Aib]EGTFTSDYSILLDKIAQ[Aib]AFIEYLIEGGPSSGAPPPK([AEEA-AEEA-γGlu-C20 diacid])-NH2
modifications: N-terminus assumed
SMILES: CC[C@H](C)[C@H](NC(=O)[C@H](CCCCN)NC(=O)[C@H](CC(=O)O)NC(=O)[C@H](CC(C)C)NC(=O)[C@H](CC(C)C)NC(=O)[C@@H](NC(=O)[C@H](CO)NC(=O)[C@H](Cc1ccc(O)cc1)NC(=O)[C@H](CC(=O)O)NC(=O)[C@H](CO)NC(=O)[C@@H](NC(=O)[C@H](Cc1ccccc1)NC(=O)[C@@H](NC(=O)CNC(=O)[C@H](CCC(=O)O)NC(=O)C(C)(C)NC(=O)[C@@H](N)Cc1ccc(O)cc1)[C@@H](C)O)[C@@H](C)O)[C@@H](C)CC)C(=O)N[C@@H](C)C(=O)N[C@@H](CCC(N)=O)C(=O)NC(C)(C)C(=O)N[C@@H](C)C(=O)N[C@@H](Cc1ccccc1)C(=O)N[C@H](C(=O)N[C@@H](CCC(=O)O)C(=O)N[C@@H](Cc1ccc(O)cc1)C(=O)N[C@@H](CC(C)C)C(=O)N[C@H](C(=O)N[C@@H](CCC(=O)O)C(=O)NCC(=O)NCC(=O)N1CCC[C@H]1C(=O)N[C@@H](CO)C(=O)N[C@@H](CO)C(=O)NCC(=O)N[C@@H](C)C(=O)N1CCC[C@H]1C(=O)N1CCC[C@H]1C(=O)N1CCC[C@H]1C(=O)N[C@@H](CCCCNC(=O)COCCOCCNC(=O)COCCOCCNC(=O)CC[C@H](NC(=O)CCCCCCCCCCCCCCCCCCC(=O)O)C(=O)O)C(N)=O)[C@@H](C)CC)[C@@H](C)CC
hGIPR cAMP EC50 ratio [1]: 0.863
hGIPR cAMP Rel EC50 [1]: 0.168 nM
hGLP1R cAMP EC50 ratio [2]: 0.0966
hGLP1R cAMP Rel EC50 [2]: 0.691 nM

B2: Example 57 (peptide)
peptide: YXEGTXTSDYSILLDKKAQXAFIEYLIEGGPSSGAPPPS
modifications: Aib2; αMeF6; K17((2-[2-(2-Amino-ethoxy)-ethoxy]-acetyl)2-(γ-Glu)-CO-(CH2)18-CO2H); Aib20; C-terminal NH2
hGIPR cAMP EC50 ratio [1]: 1.74
hGIPR cAMP Rel EC50 [1]: 0.0849 nM
hGLP1R cAMP EC50 ratio [2]: 0.996
hGLP1R cAMP Rel EC50 [2]: 0.0668 nM

B3: Example 50 (peptide)
peptide: Y[Aib]EGTFTSDYSILLDKK([AEEA-AEEA-γGlu-C20 diacid])AQ[Aib]AFIEYLIEGGPSSG-NH2
modifications: N-terminus assumed
SMILES: CC[C@H](C)[C@H](NC(=O)[C@H](CC(C)C)NC(=O)[C@H](Cc1ccc(O)cc1)NC(=O)[C@H](CCC(=O)O)NC(=O)[C@@H](NC(=O)[C@H](Cc1ccccc1)NC(=O)[C@H](C)NC(=O)C(C)(C)NC(=O)[C@H](CCC(N)=O)NC(=O)[C@H](C)NC(=O)[C@H](CCCCNC(=O)COCCOCCNC(=O)COCCOCCNC(=O)CC[C@H](NC(=O)CCCCCCCCCCCCCCCCCCC(=O)O)C(=O)O)NC(=O)[C@H](CCCCN)NC(=O)[C@H](CC(=O)O)NC(=O)[C@H](CC(C)C)NC(=O)[C@H](CC(C)C)NC(=O)[C@@H](NC(=O)[C@H](CO)NC(=O)[C@H](Cc1ccc(O)cc1)NC(=O)[C@H](CC(=O)O)NC(=O)[C@H](CO)NC(=O)[C@@H](NC(=O)[C@H](Cc1ccccc1)NC(=O)[C@@H](NC(=O)CNC(=O)[C@H](CCC(=O)O)NC(=O)C(C)(C)NC(=O)[C@@H](N)Cc1ccc(O)cc1)[C@@H](C)O)[C@@H](C)O)[C@@H](C)CC)[C@@H](C)CC)C(=O)N[C@@H](CCC(=O)O)C(=O)NCC(=O)NCC(=O)N1CCC[C@H]1C(=O)N[C@@H](CO)C(=O)N[C@@H](CO)C(=O)NCC(N)=O
hGIPR cAMP EC50 ratio [1]: 1.96
hGIPR cAMP Rel EC50 [1]: 0.0794 nM
hGLP1R cAMP EC50 ratio [2]: 0.675
hGLP1R cAMP Rel EC50 [2]: 0.0961 nM

B4: Example 49 (peptide)
peptide: Y[Aib]EGTFTSDYSILLDKIAQ[Aib]AFIEYLIEGGPSSGAPPPSK([AEEA-AEEA-γGlu-C20 diacid])-NH2
modifications: N-terminus assumed
SMILES: CC[C@H](C)[C@H](NC(=O)[C@H](CCCCN)NC(=O)[C@H](CC(=O)O)NC(=O)[C@H](CC(C)C)NC(=O)[C@H](CC(C)C)NC(=O)[C@@H](NC(=O)[C@H](CO)NC(=O)[C@H](Cc1ccc(O)cc1)NC(=O)[C@H](CC(=O)O)NC(=O)[C@H](CO)NC(=O)[C@@H](NC(=O)[C@H](Cc1ccccc1)NC(=O)[C@@H](NC(=O)CNC(=O)[C@H](CCC(=O)O)NC(=O)C(C)(C)NC(=O)[C@@H](N)Cc1ccc(O)cc1)[C@@H](C)O)[C@@H](C)O)[C@@H](C)CC)C(=O)N[C@@H](C)C(=O)N[C@@H](CCC(N)=O)C(=O)NC(C)(C)C(=O)N[C@@H](C)C(=O)N[C@@H](Cc1ccccc1)C(=O)N[C@H](C(=O)N[C@@H](CCC(=O)O)C(=O)N[C@@H](Cc1ccc(O)cc1)C(=O)N[C@@H](CC(C)C)C(=O)N[C@H](C(=O)N[C@@H](CCC(=O)O)C(=O)NCC(=O)NCC(=O)N1CCC[C@H]1C(=O)N[C@@H](CO)C(=O)N[C@@H](CO)C(=O)NCC(=O)N[C@@H](C)C(=O)N1CCC[C@H]1C(=O)N1CCC[C@H]1C(=O)N1CCC[C@H]1C(=O)N[C@@H](CO)C(=O)N[C@@H](CCCCNC(=O)COCCOCCNC(=O)COCCOCCNC(=O)CC[C@H](NC(=O)CCCCCCCCCCCCCCCCCCC(=O)O)C(=O)O)C(N)=O)[C@@H](C)CC)[C@@H](C)CC
hGIPR cAMP EC50 ratio [1]: 1.69
hGIPR cAMP Rel EC50 [1]: 0.0868 nM
hGLP1R cAMP EC50 ratio [2]: 0.112
hGLP1R cAMP Rel EC50 [2]: 0.597 nM

B5: Example 51 (peptide)
peptide: Y[Aib]EGTFTSDYSILLDKK([AEEA-AEEA-γGlu-C20 diacid])AQ[Aib]AFIEYLIEGG-NH2
modifications: N-terminus assumed
SMILES: CC[C@H](C)[C@H](NC(=O)[C@H](CC(C)C)NC(=O)[C@H](Cc1ccc(O)cc1)NC(=O)[C@H](CCC(=O)O)NC(=O)[C@@H](NC(=O)[C@H](Cc1ccccc1)NC(=O)[C@H](C)NC(=O)C(C)(C)NC(=O)[C@H](CCC(N)=O)NC(=O)[C@H](C)NC(=O)[C@H](CCCCNC(=O)COCCOCCNC(=O)COCCOCCNC(=O)CC[C@H](NC(=O)CCCCCCCCCCCCCCCCCCC(=O)O)C(=O)O)NC(=O)[C@H](CCCCN)NC(=O)[C@H](CC(=O)O)NC(=O)[C@H](CC(C)C)NC(=O)[C@H](CC(C)C)NC(=O)[C@@H](NC(=O)[C@H](CO)NC(=O)[C@H](Cc1ccc(O)cc1)NC(=O)[C@H](CC(=O)O)NC(=O)[C@H](CO)NC(=O)[C@@H](NC(=O)[C@H](Cc1ccccc1)NC(=O)[C@@H](NC(=O)CNC(=O)[C@H](CCC(=O)O)NC(=O)C(C)(C)NC(=O)[C@@H](N)Cc1ccc(O)cc1)[C@@H](C)O)[C@@H](C)O)[C@@H](C)CC)[C@@H](C)CC)C(=O)N[C@@H](CCC(=O)O)C(=O)NCC(=O)NCC(N)=O
hGIPR cAMP EC50 ratio [1]: 1.69
hGIPR cAMP Rel EC50 [1]: 0.096 nM
hGLP1R cAMP EC50 ratio [2]: 0.426
hGLP1R cAMP Rel EC50 [2]: 0.153 nM
